Experimental data published in article PMC3283691, “Low-Resolution Molecular Models Reveal the Oligomeric State of the PPAR and the Conformational Organization of Its Domains in Solution” (PLoS ONE, 2012).
Where “and” joins values, the source holds several entries; their conditions need not be identical. Identical values can stand only once.

T1: human PPARγ DBD-LBD (amino acids 101–468) (Homo sapiens (Human), UniProt P37231-2)
T1 chain: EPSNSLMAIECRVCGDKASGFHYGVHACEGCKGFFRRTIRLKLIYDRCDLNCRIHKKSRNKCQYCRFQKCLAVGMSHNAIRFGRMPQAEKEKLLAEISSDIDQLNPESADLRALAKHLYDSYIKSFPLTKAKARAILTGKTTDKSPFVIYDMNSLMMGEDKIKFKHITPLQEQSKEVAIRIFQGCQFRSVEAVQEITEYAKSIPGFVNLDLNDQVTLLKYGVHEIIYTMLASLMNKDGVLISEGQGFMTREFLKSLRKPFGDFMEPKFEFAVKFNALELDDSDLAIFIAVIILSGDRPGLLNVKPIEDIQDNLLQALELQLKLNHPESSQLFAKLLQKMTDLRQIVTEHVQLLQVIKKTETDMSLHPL

T2: human PPARγ LBD (amino acids 204–477) (Homo sapiens (Human), UniProt P37231-2)
T2 chain: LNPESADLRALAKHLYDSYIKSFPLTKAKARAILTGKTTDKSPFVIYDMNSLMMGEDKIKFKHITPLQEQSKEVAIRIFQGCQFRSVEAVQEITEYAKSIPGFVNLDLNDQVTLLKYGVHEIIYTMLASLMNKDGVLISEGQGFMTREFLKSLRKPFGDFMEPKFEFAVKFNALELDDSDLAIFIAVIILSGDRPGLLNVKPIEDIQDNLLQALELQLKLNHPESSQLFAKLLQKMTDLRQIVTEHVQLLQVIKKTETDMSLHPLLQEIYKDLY

T3: human PPARγ LBD (amino acids 204–477) (human, UniProt P37231-2 204-477)
T3 construct: Cloned in pET28a(+); His-tag removed with thrombin; also called hPPARγ LBD; PPAR LBD
T3 sequence (looked up): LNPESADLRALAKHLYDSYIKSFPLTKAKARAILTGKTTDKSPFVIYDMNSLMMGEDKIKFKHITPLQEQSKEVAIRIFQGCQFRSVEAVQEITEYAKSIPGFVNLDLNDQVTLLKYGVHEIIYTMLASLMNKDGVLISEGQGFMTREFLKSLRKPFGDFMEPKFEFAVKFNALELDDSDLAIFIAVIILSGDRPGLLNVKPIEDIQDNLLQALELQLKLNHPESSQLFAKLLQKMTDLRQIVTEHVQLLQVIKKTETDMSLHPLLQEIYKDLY


Key:
[1] = target: T1, human PPARγ DBD-LBD (amino acids …); experiment: SEC, SAXS, H/D exchange MS
[2] = target: T2, human PPARγ LBD (amino acids 204–477); experiment: SEC, native PAGE, DLS, SAXS
[3] = target: the molecule itself; experiment: native gel or EMSA; native polyacrylamide gel electrophoresis after gel filtration; RH from band mobility; hPPARγ LBD at 1 to 20 mg/mL
[4] = target: the molecule itself; experiment: SEC; analytical gel filtration, Superdex 75 HR 10/30 (LBD constructs) or Superdex 200 HR 10/30 (DBD-LBD constructs); 20 mM Hepes-Na pH 8.0, 3 mM dithiothreitol, 200 mM NaCl, 5% glycerol; heterodimers formed from 20 mg/mL of each protein, 1:1 molar, 1 h at 4°C; RH from calibration standards
[5] = target: the molecule itself; experiment: dynamic light scattering; DLS after gel filtration; hPPARγ LBD at different concentrations
[6] = target: T3, human PPARγ LBD (amino acids 204–477); experiment: SEC; analytical gel filtration, Superdex 75 HR 10/30 (LBD constructs) or Superdex 200 HR 10/30 (DBD-LBD constructs); 20 mM Hepes-Na pH 8.0, 3 mM dithiothreitol, 200 mM NaCl, 5% glycerol; heterodimers formed from 20 mg/mL of each protein, 1:1 molar, 1 h at 4°C; RH from calibration standards; settings: both partners purified

binding result [1]	binding result [2]	binding result [6]	Binder	stoichiometry N [3]	stoichiometry N [4]	stoichiometry N [5]
binds			human RXRα DBD-LBD (amino acids 135–462) (protein) CAICGDRSSGKHYGVYSCEGCKGFFKRTVRKDLTYTCRDNKDCLIDKRQRNRCQYCRYQKCLAMGMKREAVQEERQRGKDRNENEVESTSSANEDMPVERILEAELAVEPKTETYVEANMGLNPSSPNDPVTNICQAADKQLFTLVEWAKRIPHFSELPLDDQVILLRAGWNELLIASFSHRSIAVKDGILLATGLHVHRNSAHSAGVGAIFDRVLTELVSKMRDMQMDKTELGCLRAIVLFNPDSKGLSNPAEVEALREKVYASLEAYCKHKYPEQPGRFAKLLLRLPALRSIGLKCLEHLFFFKLIGDTPIDTFLMEMLEAPHQMT			
	binds	binds	human RXRα LBD (amino acids 225–462) (domain or fragment, UniProt P19793 225-462, looked up, Cloned in pET28a(+); also called hRXRα LBD) SANEDMPVERILEAELAVEPKTETYVEANMGLNPSSPNDPVTNICQAADKQLFTLVEWAKRIPHFSELPLDDQVILLRAGWNELLIASFSHRSIAVKDGILLATGLHVHRNSAHSAGVGAIFDRVLTELVSKMRDMQMDKTELGCLRAIVLFNPDSKGLSNPAEVEALREKVYASLEAYCKHKYPEQPGRFAKLLLRLPALRSIGLKCLEHLFFFKLIGDTPIDTFLMEMLEAPHQMT	4 and 2	2 and 4	4 and 2
